Reference: patent US8318640B2, “Methods for selective targeting” (Danisco US Inc., priority 2000, dated 2012)
Square brackets hold non-standard residues; d marks the D form. Ends that are not written are not given here. 14C‑Gly = 14C-labelled glycine

Experiments:
[1] = Release of 14C-labeled peptide from collar soil on polyester cotton in Tide detergent, scintillation counting; format: binding
Method: Soiled shirt collars (65% polyester: 35% cotton) containing the target (collar soil) and anti-target along with the control anti-target (unstained polyester:cotton from the same shirt) were cut to a diameter of 7/32″ and placed into a 96-well microtiter plate (Millipore Corp., […] Durapore membrane; Cat. No. MAGV N22 50). Serial dilutions of a 400 μM stock solution of a soil targeting peptide SISSTPRSYHWT (SEQ ID NO: 20) and a peptide control NFFPTWILPEHT (SEQ ID NO: 78) both terminally labelled with ^14C-glycine were added to 1 g/L Tide detergent solutions (Procter and Gamble, Cincinnati, Ohio) and 60 μL aliquots were placed into the wells of the microtiter plate. The plate was incubated with shaking for 30 minutes at 32° C. followed by suction filtering of excess unbound radiolabeled peptide (Vacuum manifold; Millipore Corp. Cat. No. MAVM 096 OR). The samples were rinsed three times with 200 μL of distilled water, with shaking in between rinses, over a period of about 40 minutes. The remaining radioactivity bound to the samples was quantitated by liquid scintillation counting in a Wallac microbeta counter. […] This corresponds to a rate constant for release of the soil targeting peptide koff≦2×10^−4 sec^−1.

[2] = Ni-chelated peptide binding to collar soil on cotton or cotton alone, OPD/H2O2 absorbance assay
Method: A phage peptide sequence HTFQHQWTHQTR, (SEQ ID NO: 27) that binds to collar soil on cotton was identified after five rounds of biopanning as described in example 5 except that phage peptides were eluted by acid after each round using the methods described in Scott and Smith (1990) Science 249:386. The selectivity (stain vs. cotton binding) and affinity (koff) were measured for the corresponding peptide binding to collar soil as follows: A 1 mM solution of Ni chelated GGHTFQHQWTHQTR (SEQ ID NO: 28) was incubated with collar soil on cotton or cotton alone for 90 minutes at room temperature with shaking in a microtiter plate. A control peptide chelate Ni GGH was also tested under the same conditions. After pipeting off the incubation solution from the well, fabric swatches were rinsed in 200 μL water with shaking for 3 minutes. The residual bound peptide was assayed by adding 200 μL o-phenylenediamine (OPD) and 50 μL of 100 mM H2O2 and measuring the absorbance of the oxidized OPD at 420 nm. As summarized in Table 5 and FIG. 7, the selectivity ratio of stain binding to fabric is less than or equal to ≦3:1 and the affinity as measured by koff=1×10^−3 sec^−1.

[3] = molecular target: T1, (h) TNF-α (Homo sapiens, UniProt P01375); experiment: Selective targeting of a phage-displayed 7-mer library on TNF-α, PCR identification of bound clones; format: binding; parameters: purchased BioSource International; Camarillo, Calif; conditions: number of multiple times this amino acid sequence occurred out of 24 clones sequenced; binds TNF-alpha and not SuperBlock
T1 sequence (P01375 77-233 limits assumed): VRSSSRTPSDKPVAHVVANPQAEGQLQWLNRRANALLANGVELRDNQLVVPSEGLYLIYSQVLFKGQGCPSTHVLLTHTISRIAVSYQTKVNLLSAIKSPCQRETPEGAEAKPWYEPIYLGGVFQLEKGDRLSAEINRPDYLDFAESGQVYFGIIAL
Method: A thin-walled PCR tube was coated with the target human (h) TNF-α (BioSource International; Camarillo, Calif.) by incubating 100 μl of 0.5 mg/ml purified TNF-α in PBS overnight at 4° C. in the PCR tube. Excess unbound TNF-α was removed, and the tube was coated overnight at 4° C. with 100 μl of SuperBlock™ blocking buffer (Pierce: Rockford, Ill.) in Tris buffered saline (TBS). The anti-target (SuperBlock™ blocking buffer) was prepared in separate PCR tubes coated overnight at 4° C. with 100 μl of SuperBlock™.
Unbound phage were removed by washing the tube 5 times with 150 μl PBS containing 0.1% Tween-20 at room temperature. Low affinity binders were washed away by incubating with 60 μl of 0.2 M Glycine (pH 2.2) for 6 minutes followed by neutralization with 9 μl 1 M Tris-Cl (pH 9.1). The acid washed population was retained for further analysis. The tube was then washed again 3 times with 150 μl of PBS.
To the remaining phage-peptides bound to the TNF-α, 54 μl of Lysis Buffer A (10 mM Tris-Cl, pH 8.4, 0.1% Triton-X100) and an AmpliWax™ PCR gem (Perkin Elmer, Norwalk, USA.) was added. The tube was heated at 95° C. for 15 min and then allowed to cool. The following PCR reagents were then added:
PCR amplification was performed using 20 cycles of denaturation at 94° C. for 15 sec, annealing at 55° C. for 20 sec, and extension at 72° C. for 30 sec. The sequences of the primers (synthesized by GIBCO BRL) were: […]
The PCR product (267 base pairs (bp)) was analyzed on an 8% polyacrylamide gel along with the PCR product from a single phage peptide clone (positive control) and molecular weight markers (FIG. 2). […] This was due to too much template (i.e. phage) in the PCR reaction, and can be alleviated by decreasing the phage concentration or by decreasing the number of PCR cycles (FIG. 3). To decrease the amount of the 500-700 bp diffuse band, the PCR product was diluted appropriately for subsequent PCR reactions from this starting material to generate more products for sub-cloning purposes. Once the desired product (267 bp) was amplified, it was digested with Eagl and Acc651 restriction endonucleases to produce a 45 bp fragment containing the DNA coding for the random peptide. The 45 bp fragment was then sub-cloned into the M13KE vector (New England Biolabs; Beverly, Mass.) at the EagI and Acc65I restriction sites using standard techniques (Sambrook, et al., (1989) supra). After ligating the 45 bp fragment into the M13KE vector, the ligation reaction was transformed into chemically competent ER2537 E. coli cells. The cells were made competent with calcium chloride using a standard protocol (Sambrook, et al., (1989) supra). The M13 DNA was isolated from various transformants using a modified protocol from New England Biolab's protocol for M13 DNA preparation and then sequenced. The modification includes the use of 96-well plates as opposed to tubes.

[4] = ELISA of biotinylated peptide binding to hair; parameters: species or system human; conditions: 200 μM biotinylated peptide in 2% body wash; FIG. 9
Description: (§1) Peptide sequences identified in Examples 13 and 14 along with a random control peptide were C-terminally labeled with the sequence GGGK (biotin). The sequence LESTPKMK (SEQ ID NO: 115) contains the consensus sequence LEST and was isolated on hair. FTQSLPR (SEQ ID NO: 116) contains the consensus sequence TQSL and was isolated on skin. YGGFMTSE (SEQ ID NO: 117) is a control peptide.
(§2) Dark brown hair (3″ long, 4 each), moistened with 2% body wash and pre-equilibrated human skin tissues, were placed in the wells of a 24 well plate. 1 ml of a 200 μM solution of the biotinylated peptide in 2% Neutrogena body wash was added to the hair and skin samples and incubated 30 min at room temperature with gentle agitation. The solution was then pipetted off and the hair and skin samples transferred with clean tweezers to a 50 ml conical tube, washed once with 50 ml of 2% body wash, twice with 50 ml of water, and once with 50 ml of PBS; each wash step took 5 min and was performed on a rotary shaker at 20 rpm. The hair and skin samples were then transferred with clean tweezers to a fresh 24 well plate where 1 ml of streptavidin conjugated horseradish peroxidase (diluted 1/1000 in PBS) was added for 1 hr at room temperature under gentle rocking. Excess streptavidin HRP was removed by washing twice with 50 ml of PBS (5 min, 20 rpm each) in a 50 mL conical tube. […]

[5] = molecular target: T1, (h) TNF-α; experiment: IAsys biosensor binding and dissociation of phage clone on immobilized TNF-α
Method: The binding and dissociation of phage clone A1, amino acid sequence: RYWQDIP; Table 1, (SEQ ID NO: 3) to TNF-α was monitored using an IAsys AutoPlus Biosensor following the Labsystems Affinity Sensors IAsys Protocol 2.4 ‘Immobilization to Protein Layer: Thiol coupling to avidin’ (Thermo BioAnalysis Corp. Franklin, Mass.). Two cuvettes were first coated with avidin and one (the control) was then blocked with biotin. This was followed by activation of the lysine groups. A 15 μl aliquot of a 1 mg/ml (h) TNF-α solution was added to each cuvette. […] After blocking and washing, phage clone A1, RYWQDIP (SEQ ID NO: 3) was added to give a final titer of 5×10^11 pfu/ml.
The dissociation of the phage from the TNF-α is very slow with the dissociation constant estimated as koff<10^−4 sec^−1 (10 mM HEPES/0.05% Tween). Washing with a 10× buffer concentrate (at the 70 min time point) only removed a small portion of the phage.

[6] = ELISA of biotinylated peptide binding to skin; parameters: species or system human; conditions: 200 μM biotinylated peptide in 2% body wash; FIG. 9
Description: as §1, §2

GSISSTPRSYHWT ([14C‑Gly]SISSTPRSYHWT)
Affinity 10^−4 koff (sec^−1) ([1]; Table 5, Selective Targeting (PCR), 1 round of selection): ≦ 2 10^−4 sec^−1

GGHTFQHQWTHQTR (peptides screened from a phage display random peptide library)
koff ([2]; Ni-chelated peptide, dissociation from collar soil and the corresponding cotton fabric): 0.001 s⁻¹ | Affinity 10^−4 koff (sec^−1) ([2]; Table 5, Biopanning, 5 rounds of selection): 10 10^−4 sec^−1

NFFPTWILPEHT (peptides screened from a phage display random peptide library) [random peptide control, reference compound]
affinity or selectivity for stained fabric ([1]; 1 g/L Tide, same assay, FIG. 6B): no affinity or selectivity

DMIMVSI (peptides screened from a phage display random peptide library) [Clone T3]
Frequency [3]: 3

LESTPKMK (peptides screened from a phage display random peptide library)
ELISA binding to hair [4]: binds to hair

WTPKPTQ (peptides screened from a phage display random peptide library) [Clone T4]
Frequency [3]: 2

SISSTPRSYHWT (peptides screened from a phage display random peptide library) [Clone C4]
total radiolabel remaining bound to the stained fabric ([1]; 1 g/L Tide, after rinsing for 40 minutes): greater than 50% | koff, rate constant for release of the soil targeting peptide ([1]; 1 g/L Tide, collar soil on polyester cotton): ≤ 0.0002 s⁻¹

ASTVGGL (peptides screened from a phage display random peptide library) [Clone T6]
Frequency [3]: 2

RYWQDIP (peptides screened from a phage display random peptide library) [Clone T1]
koff (dissociation of the phage from the TNF-α) ([5]; 10 mM HEPES/0.05% Tween): < 10^−4 sec^−1 | binding of phage to immobilized TNF-α ([5]; IAsys cuvette, final titer 5×10^11 pfu/ml): significant binding | Frequency [3]: 8

ATFPNQS (peptides screened from a phage display random peptide library) [Clone T5]
Frequency [3]: 2

FTQSLPR (peptides screened from a phage display random peptide library)
ELISA binding to skin versus hair [6]: selectively targets skin and not hair

TMLPYRP (peptides screened from a phage display random peptide library) [Clone T7]
Frequency [3]: 2

APEPILA (peptides screened from a phage display random peptide library) [Clone T2]
Frequency [3]: 7
